# According to publication PMC7483736, “Catalytic specificity of the Lactobacillus plantarum cystathionine γ-lyase presumed by the crystallographic analysis” (Scientific Reports, 2020):
# Experiments:
# L. plantarum CGL [1] = molecular target: T1, L. plantarum CGL (Lactiplantibacillus plantarum, UniProt F9UT53, K194A); test: X-ray crystal structure, […] Å; assay type: binding; settings: covalent; external aldimine with PLP, substrate analogue, phosphate at distal carboxyl site
# T1 construct: gene cblB; C-terminal His6 tag (kept), pET-21a(+), E. coli BL21(DE3); homotetramer, active site between two subunits; PCR primers (translated) give N-terminus MRTLTMKFETQ and C-terminus FASIQAD before LE-His6
# T1 sequence (F9UT53 entry or part of it K194A): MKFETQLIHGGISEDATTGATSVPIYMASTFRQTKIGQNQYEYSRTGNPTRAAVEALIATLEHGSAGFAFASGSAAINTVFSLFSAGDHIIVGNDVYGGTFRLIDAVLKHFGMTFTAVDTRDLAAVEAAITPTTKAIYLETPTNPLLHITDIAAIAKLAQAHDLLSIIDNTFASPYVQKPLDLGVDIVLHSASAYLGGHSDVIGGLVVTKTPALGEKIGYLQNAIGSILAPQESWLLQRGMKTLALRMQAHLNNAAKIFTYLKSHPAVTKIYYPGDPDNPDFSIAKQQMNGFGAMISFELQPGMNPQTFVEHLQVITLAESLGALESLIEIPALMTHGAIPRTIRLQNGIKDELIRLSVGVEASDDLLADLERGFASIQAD
# [2] = molecular target: K194A mutant of L. plantarum CGL (cystathionine γ-lyase from Lactobacillus plantarum SN35N) (Lactobacillus plantarum SN35N); test: crystal structure; K194A CGL at 9 mg/mL with PLP and 2 mM cystathionine or 2 mM L-serine; sitting-drop vapor diffusion, precipitant 0.4 M KH2PO4 and 0.4 M Na2HPO4; tetramer seen in the crystal
# L. plantarum CGL [3] = molecular target: T1, L. plantarum CGL; test: X-ray crystal structure, […] Å; assay type: binding; settings: covalent; external aldimine with PLP at active site, inactive mutant
# DTNB thiol release, A412 = substrate: N[C@@H](CCSC[C@H](N)C(=O)O)C(=O)O; test: DTNB thiol release, A412; assay type: biochemical, Lactiplantibacillus plantarum; settings: cystathionase, 100 mM HEPES-KOH pH 7.5, 0.5 mM DTNB, 37 °C
# Source text: DTNB thiol release, A412 on L. plantarum CGL
# H2S release as PbS, A390 [4] = substrate: N[C@@H](CCS)C(=O)O; test: H2S release as PbS, A390; assay type: biochemical, Lactiplantibacillus plantarum; settings: L-homocysteine gamma-lyase
# Source text: (§1) H2S release as PbS, A390 on L. plantarum CGL
# H2S release as PbS, A390 [5] = substrate: N[C@@H](CS)C(=O)O; test: H2S release as PbS, A390; assay type: biochemical, Lactiplantibacillus plantarum; settings: L-cysteine beta-lyase, 100 mM HEPES-KOH pH 7.5, 5 mM TCEP, 0.4 mM lead(II) nitrate, 37 °C
# Source text: as §1
# [6] = substrate: N[C@@H](CSSC[C@H](N)C(=O)O)C(=O)O; test: lactate dehydrogenase-coupled pyruvate formation, NADH A340; assay type: biochemical, Lactiplantibacillus plantarum; settings: L-cystine beta-lyase, 100 mM HEPES-KOH pH 7.5, 0.2 mM NADH, 37 °C
# Source text: lactate dehydrogenase-coupled pyruvate formation, NADH A340 on L. plantarum CGL
# [7] = 100 mM HEPES-KOH pH 7.5, 5 mM TCEP, 0.4 mM lead(II) nitrate, 37 °C
# [8] = buffer same, fitted with substrate inhibition, called inaccurate by authors
molecule,measurement,setting,value
N[C@@H](CO)C(=O)O [L-serine],"X-ray crystal structure, 2.75 Å",L. plantarum CGL [1],L-serine was also found as part of the external aldimine formed with PLP
K194A mutant of L. plantarum CGL (cystathionine γ-lyase from Lactobacillus plantarum SN35N) (enzyme),stoichiometry N,[2],4
N[C@@H](CCSC[C@H](N)C(=O)O)C(=O)O [cystathionine],"X-ray crystal structure, 3.10 Å",L. plantarum CGL [3],Cystathionine was found in the crystal structure as a part of the external aldimine
"L. plantarum CGL (Lactiplantibacillus plantarum WCFS1) (protein, C-terminal His6 tag (kept), pET-21a(+), E. coli BL21(DE3); homotetramer, active site between two subunits; PCR primers (translated) give N-terminus … and C-terminus FASIQAD before LE-His6) MKFETQLIHGGISEDATTGATSVPIYMASTFRQTKIGQNQYEYSRTGNPTRAAVEALIATLEHGSAGFAFASGSAAINTVFSLFSAGDHIIVGNDVYGGTFRLIDAVLKHFGMTFTAVDTRDLAAVEAAITPTTKAIYLETPTNPLLHITDIAAIAKLAQAHDLLSIIDNTFASPYVQKPLDLGVDIVLHSASKYLGGHSDVIGGLVVTKTPALGEKIGYLQNAIGSILAPQESWLLQRGMKTLALRMQAHLNNAAKIFTYLKSHPAVTKIYYPGDPDNPDFSIAKQQMNGFGAMISFELQPGMNPQTFVEHLQVITLAESLGALESLIEIPALMTHGAIPRTIRLQNGIKDELIRLSVGVEASDDLLADLERGFASIQAD",Km,"DTNB thiol release, A412",450 ± 10 µM
same,kcat,"DTNB thiol release, A412",0.49 ± 0.01 s⁻¹
same,kcat/Km,"DTNB thiol release, A412",1100 ± 100 M⁻¹ s⁻¹
same,Km,"H2S release as PbS, A390 [4]; [7]",6300 ± 700 µM
same,kcat,"H2S release as PbS, A390 [4]; [7]",0.081 ± 0.004 s⁻¹
same,kcat/Km,"H2S release as PbS, A390 [4]; [7]",13 ± 1 M⁻¹ s⁻¹
same,Km,"H2S release as PbS, A390 [5]",35000 ± 6000 µM
same,kcat,"H2S release as PbS, A390 [5]",0.3 ± 0.03 s⁻¹
same,kcat/Km,"H2S release as PbS, A390 [5]",8.6 ± 1.8 M⁻¹ s⁻¹
same,Km,[6],120 ± 10 µM
same,kcat,[6],0.12 ± 0.01 s⁻¹
same,kcat/Km,[6],1000 ± 100 M⁻¹ s⁻¹
"L. plantarum CGL (Lactiplantibacillus plantarum WCFS1; Y97F) (protein, C-terminal His6 tag (kept), pET-21a(+), E. coli BL21(DE3); homotetramer, active site between two subunits; PCR primers (translated) give N-terminus … and C-terminus FASIQAD before LE-His6) MKFETQLIHGGISEDATTGATSVPIYMASTFRQTKIGQNQYEYSRTGNPTRAAVEALIATLEHGSAGFAFASGSAAINTVFSLFSAGDHIIVGNDVFGGTFRLIDAVLKHFGMTFTAVDTRDLAAVEAAITPTTKAIYLETPTNPLLHITDIAAIAKLAQAHDLLSIIDNTFASPYVQKPLDLGVDIVLHSASKYLGGHSDVIGGLVVTKTPALGEKIGYLQNAIGSILAPQESWLLQRGMKTLALRMQAHLNNAAKIFTYLKSHPAVTKIYYPGDPDNPDFSIAKQQMNGFGAMISFELQPGMNPQTFVEHLQVITLAESLGALESLIEIPALMTHGAIPRTIRLQNGIKDELIRLSVGVEASDDLLADLERGFASIQAD",Km,"DTNB thiol release, A412",770 ± 210 µM
same,kcat,"DTNB thiol release, A412",0.0056 ± 0.0007 s⁻¹
same,kcat/Km,"DTNB thiol release, A412",7.2 ± 2.2 M⁻¹ s⁻¹
same,Km,"H2S release as PbS, A390 [4]; [8]",1200 ± 800 µM
same,kcat,"H2S release as PbS, A390 [4]; [8]",0.042 ± 0.02 s⁻¹
same,kcat/Km,"H2S release as PbS, A390 [4]; [8]",35 ± 27 M⁻¹ s⁻¹
same,Km,"H2S release as PbS, A390 [5]; pH 7.5",160 ± 30 µM
same,kcat,"H2S release as PbS, A390 [5]; pH 7.5",0.015 ± 0.001 s⁻¹
same,kcat/Km,"H2S release as PbS, A390 [5]; pH 7.5",96 ± 18 M⁻¹ s⁻¹
same,Km,[6],56 ± 9 µM
same,kcat,[6],0.1 ± 0.01 s⁻¹
same,kcat/Km,[6],1800 ± 300 M⁻¹ s⁻¹
